Measured values reported in patent US20090297520A1.
Like-named read-outs stand apart in the source and are kept apart here. Ends that are not written are not given here.

Tests used:
Assay in all cases: cell-based or functional assay
[1] = target: human Kv1.3 (human) (UniProt P22001)
[2] = target: human Kv1.1 (human) (UniProt Q09470)
[3] = target: human Kv1.3 (human) (UniProt P22001); remark: listed apart in the source

Chain of human Kv1.3 (human) (P22001 whole entry): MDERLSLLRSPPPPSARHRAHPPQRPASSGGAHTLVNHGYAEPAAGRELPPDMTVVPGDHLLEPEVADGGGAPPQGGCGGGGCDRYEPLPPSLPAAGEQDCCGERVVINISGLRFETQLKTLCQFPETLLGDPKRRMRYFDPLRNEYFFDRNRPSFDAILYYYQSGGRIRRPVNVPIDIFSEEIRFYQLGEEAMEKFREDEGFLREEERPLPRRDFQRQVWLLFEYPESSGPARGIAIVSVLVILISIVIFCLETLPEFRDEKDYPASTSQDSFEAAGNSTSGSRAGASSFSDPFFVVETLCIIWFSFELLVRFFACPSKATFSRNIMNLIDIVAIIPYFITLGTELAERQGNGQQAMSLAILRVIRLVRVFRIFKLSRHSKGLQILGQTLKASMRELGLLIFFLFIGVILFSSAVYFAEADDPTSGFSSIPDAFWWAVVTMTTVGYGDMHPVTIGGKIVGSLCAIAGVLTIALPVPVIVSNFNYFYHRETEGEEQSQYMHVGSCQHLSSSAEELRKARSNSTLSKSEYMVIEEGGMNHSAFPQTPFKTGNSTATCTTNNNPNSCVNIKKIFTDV
Chain of human Kv1.1 (human) (Q09470 whole entry): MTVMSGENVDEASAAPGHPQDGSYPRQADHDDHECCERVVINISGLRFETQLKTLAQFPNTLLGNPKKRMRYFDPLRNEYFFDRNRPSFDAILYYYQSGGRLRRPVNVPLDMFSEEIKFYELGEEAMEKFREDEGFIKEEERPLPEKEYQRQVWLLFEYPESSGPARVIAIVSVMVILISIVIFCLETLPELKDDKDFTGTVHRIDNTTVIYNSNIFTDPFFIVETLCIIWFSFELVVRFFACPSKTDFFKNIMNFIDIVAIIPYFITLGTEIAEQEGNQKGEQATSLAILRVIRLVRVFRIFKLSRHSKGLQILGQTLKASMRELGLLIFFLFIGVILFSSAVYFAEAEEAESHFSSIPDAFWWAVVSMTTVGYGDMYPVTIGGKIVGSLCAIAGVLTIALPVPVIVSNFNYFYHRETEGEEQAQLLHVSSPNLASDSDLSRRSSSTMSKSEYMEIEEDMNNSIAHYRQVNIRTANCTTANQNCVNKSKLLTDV

20k PEG-OSK1[Ala29, 1Nal34] (peptide)
WB/IFNg (IC50, nM), human whole blood [1]: 0.081 nM
WB/IL-2 (IC50, nM), human whole blood [1]: 0.049 nM

20k PEG-ShK (peptide)
WB/IFNg (IC50, nM), human whole blood [1]: 0.065 nM
WB/IL-2 (IC50, nM), human whole blood [1]: 0.046 nM

E. coli-derived Fc-L-OSK1 (Fc fusion)
Kv1.3 IC50 by WCVC (nM), whole cell patch clamp on HEK293/Kv1.3 cells [1]: 3.2 nM

E. coli-derived Fc-L-ShK[1-35] (Fc fusion)
Kv1.3 IC50 by WCVC (nM), whole cell patch clamp on HEK293/Kv1.3 cells [1]: 1.4 nM

E. coli-derived Fc-L-ShK[2-35] (Fc fusion)
Kv1.3 IC50 by IWQ (nM), IonWorks planar patch clamp on CHO/Kv1.3 cells [1]: 2.8 nM
Kv1.3 IC50 by WCVC (nM), whole cell patch clamp on HEK293/Kv1.3 cells [1]: 1.3 nM

E. coli-derived ShK[2-35]-L-Fc (Fc fusion)
Kv1.3 IC50 by IWQ (nM), IonWorks planar patch clamp on CHO/Kv1.3 cells [1]: 4.9 nM

E. coli-derived Shk[1-35]-L-Fc (Fc fusion)
Kv1.3 IC50 by IWQ (nM), IonWorks planar patch clamp on CHO/Kv1.3 cells [1]: 2.4 nM

Fc-L5-ShK[2-35] (CHO-derived, bivalent dimeric) (Fc fusion)
IC50, block of outward potassium current, whole cell patch clamp [1]: 0.1 nM

Fc-L10-OSK1 (Fc fusion)
hKv1.1: IC50 [pM], whole cell patch clamp [2]: 41600 pM

Fc-L10-ShK[2-35] (CHO-derived, bivalent dimeric) (Fc fusion)
IC50, block of outward potassium current, whole cell patch clamp [1]: 0.115 nM

Fc-L25-ShK[2-35] (CHO-derived, bivalent dimeric) (Fc fusion)
IC50, whole cell patch clamp on HEK293/Kv1.3 cells [1]: 0.15 nM

GGGGS-Osk1 (peptide)
WB/IFNg (IC50, nM), human whole blood [1]: 2.2 nM
WB/IL-2 (IC50, nM), human whole blood [1]: 1.36 nM

OSK1 (synthetic Osk1 toxin peptide)
IC50, block of outward potassium current, whole cell patch clamp [1]: 0.039 nM

OSK1-K16, D20 (peptide)
WB/IFNg (IC50, nM), human whole blood [1]: 1.32 nM
WB/IL-2 (IC50, nM), human whole blood [1]: 1.58 nM

PEG-Fc-L10-OSK1, pool 2 (Fc fusion)
IC50 Sustained (nM), pool 2 [1]: 0.332 nM

PEG-Fc-L10-OSK1, pool 3 (Fc fusion)
IC50 Sustained (nM), pool 3 [1]: 0.256 nM

PEG-Fc-L10-SHK(2-35), pool 2 (Fc fusion)
IC50 Sustained (nM), pool 2 [1]: 0.158 nM

PEG-Fc-L10-SHK(2-35), pool 3 (Fc fusion)
IC50 Sustained (nM), pool 3 [1]: 0.175 nM

PEG-OSK1 (peptide)
peak IC50, whole cell patch clamp [1]: 1.28 nM

Synthetic OSK1 (peptide)
hKv1.1/hKv1.3 (ratio of IC50s, reference hKv1.3) [2]: 4
hKv1.1: IC50 [pM], whole cell patch clamp [2]: 160 pM
hKv1.3: IC50 [pM], whole cell patch clamp [1]: 39 pM

native OSK1 (peptide)
Kv1.1 (IC50, pM), whole cell patch clamp ePhys [2]: 202 pM
Kv1.3 (IC50, pM), whole cell patch clamp ePhys [1]: 39 pM
Kv1.3 Selectivity (=Kv1.1/Kv.3 IC50) [1]: 5 fold

SCIDTIPKSRCTAFQCKHSMKYRLSFCRKTCGTC (not fully specified; ends and bridges not checked) [ShK[2-35] (synthetic peptide analog)]
IC50, block of outward potassium current, whole cell patch clamp [3]: 0.049 nM

RSCIDTIPKSRCTAFQCKHSMKYRLSFCRKTCGTC (not fully specified (N-terminus); ends and bridges not checked) [20K PEG-ShK[1-35]]
peak IC50, whole cell patch clamp [3]: 0.169 nM
